{
  "source": "patent US8399206B2",
  "about": "“Methods for diagnosis, prognosis and methods of treatment” (Nodality, Inc., priority 2008, dated 2013)",
  "molecules": {"B1": {"name": "IL-27: interleukin-27 (protein, UniProt Q8NEV9 29-243; Q14213 21-229, looked up)", "Interleukin-27 subunit alpha": "FPRPPGRPQLSLQELRREFTVSLHLARKLLSEVRGQAHRFAESHLPGVNLYLLPLGEQLPDVSLTFQAWRRLSDPERLCFISTTLQPFHALLGGLGTQGRWTNMERMQLWAMRLDLRDLQRHLRFQVLAAGFNLPEEEEEEEEEEEEERKGLLPGALGSALQGPAQVSWPQLLSTYRLLHSLELVLSRAVRELLLLSKAGHSVWPLGFPTLSPQP", "Interleukin-27 subunit beta": "RKGPPAALTLPRVQCRASRYPIAVDCSWTLPPAPNSTSPVSFIATYRLGMAARGHSWPCLQQTPTSTSCTITDVQLFSMAPYVLNVTAVHPWGSSSSFVPFITEHIIKPDPPEGVRLSPLAERQLQVQWEPPGSWPFPEIFSLKYWIRYKRQGAARFHRVGPIEATSFILRAVRPRARYYVQVAAQDLTDYGELSDWSLPATATMSLGK"}, "B2": {"name": "FLT-3L: fms-like tyrosine kinase receptor-3 ligand (protein, UniProt P49771 27-235, looked up)", "Fms-related tyrosine kinase 3 …": "TQDCSFQHSPISSDFAVKIRELSDYLLQDYPVTVASNLQDEELCGGLWRLVLAQRWMERLKTVAGSKMQGLLERVNTEIHFVTKCAFQPPPSCLRFVQTNISRLLQETSEQLVALKPWITRQNFSRCLELQCQPDSSTLPPPWSPRPLEATAPTAPQPPLLLLLLLPVGLLLLAAAWCLHWQRTRRRTPRPGEQVPPVPSPQDLLLVEH"}},
  "system": "AML myeloblasts (BMMC)",
  "experiment": "SCNP of paired diagnosis and relapse AML BMMC and independent diagnostic set (Example 5)",
  "assay_type": "cell-based, human",
  "details": "paired diagnosis samples of Patients 1 and 2",
  "from_the_text": "All AML bone marrow mononuclear cells (BMMC) were derived from the bone marrow (BM) of AML patients treated at MD Anderson Cancer Center (MDACC) between September 1999 and September 2006. Clinical data were de-identified in compliance with Health Insurance Portability and Accountability Act regulations. Patient/sample inclusion criteria required a diagnosis of French-American-British (FAB) classification of M0 through M7 AML (excluding M3) AML, collection prior to therapy initiation and at least 50% viability upon sample thaw. For the identification of chemoresistant signaling profiles, two longitudinally paired BMMC samples at diagnosis (collection prior to the initiation of induction chemotherapy) and first relapse, were examined. An independent test set comprised of 47 BMMC samples collected at diagnosis from AML patients with a disease response of CR after high dose cytarabine based chemotherapy was used to assess the ability of the identified signaling profiles to predict disease relapse. Healthy, unstimulated BMMC (n=2) were purchased from a commercial source (All Cells) to serve as a control. All samples underwent fractionation over Ficoll-Hypaque prior to cryopreservation with 90% fetal bovine serum and 10% dimethyl sulfoxide and storage in liquid nitrogen.\nThe SCNP assay measured response to growth factors and cytokines involved in hematopoietic progenitor or myeloid biology (SCF, FLT3L, G-CSF, IL-27), drug transporter (ABCG2, MRP-1) and chemokine receptors (CXCR4) associated with adverse disease prognosis in AML, and the c-Kit growth factor receptor for SCF. The SCF and FLT3L-mediated PI3K/Akt and MAPK pathway is important for maintaining the hematopoietic stem cell pool; G-CSF-mediated Jak/STAT pathway activation is important for neutrophilic differentiation of hematopoietic progenitor cells; interleukin (IL)-27 mediated Jak/STAT pathway activation is important in regulating proliferation and differentiation of hematopoietic stem cells; CXCR4 expression is associated with disease relapse and decreased survival; and drug transporter expression levels (i.e. ABCG2 and MRP-1) are known to be associated with adverse prognosis in AML. All together, approximately 20 signaling nodes were evaluated in each sample.\nSCNP assays were performed as described previously. Cryopreserved samples were thawed at 37° C. and washed once in warm PBS containing 10% FBS (HyClone, Waltham, Mass., USA) and 2 mM EDTA. […] The cells were re-suspended in RPMI containing 1% FBS, aliquoted to 100,000 cells/condition and rested for 1-2 hours at 37° C. […]",
  "data": [
    {"molecule": "B1", "values": [
      {"measurement": "responsive subpopulation in diagnosis samples", "result": "no IL-27 responsive subpopulation was identified"}
    ]},
    {"molecule": "B2", "values": [
      {"measurement": "responsive cells in diagnostic AML bone marrow samples", "result": "~1", "unit": "%"}
    ]}
  ]
}
